Some results are limits rather than exact numbers.

Assay [1] has as its target PIP30/FAM192A (endogenous) (human (endogenous in U2OS, HeLa, U937)) (UniProt Q9GZU8). Briefly: co-IP.
In assay [2] the target is PA28γ (endogenous) (human (endogenous in U2OS, HeLa, U937)) (UniProt P61289). The experiment in a line: co-IP.

UniProt Q9GZU8, sequence (Q9GZU8 whole entry): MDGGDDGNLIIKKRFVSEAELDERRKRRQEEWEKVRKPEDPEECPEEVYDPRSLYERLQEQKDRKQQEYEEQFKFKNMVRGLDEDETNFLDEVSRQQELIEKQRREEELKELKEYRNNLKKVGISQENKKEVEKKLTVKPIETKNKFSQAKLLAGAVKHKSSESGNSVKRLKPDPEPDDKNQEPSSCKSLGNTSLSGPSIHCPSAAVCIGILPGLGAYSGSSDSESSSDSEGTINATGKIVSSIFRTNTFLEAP

Regarding “PA28γ (endogenous) (from UniProt P61289 1-254) (natural protein)”, the percent coprecipitated in assay [1] was greater than 70%. In turn, “PIP30/FAM192A (endogenous) (from UniProt Q9GZU8 1-254) (natural protein)” yielded a percent coprecipitated in assay [2] greater than 70%.

The values above are taken from article PMC6048556.
